First the molecules themselves.
B1: viral macrophage inflammatory protein II (ligand)
chain: GDTLGASWHRPDKCCLGYQKRPLPQVLLSSWYPTSQLCSKPGVIFLTKRGRQVCADKSKDWVKKLMQQLPVTAR
B2: mouse CXCL17 (ligand)
chain: SPNPGVARSHGDQHLAPRRWLLEGGQECECKDWFLQAPKRKATAVLGPPRKQCPCDHVKGREKKNRHQKHHRKSQRPSRACQQFLKRCHLASFALPL
B3: mouse GPR15L (ligand)
chain: RRHPAKSLKLRRCCHLSPRSKLTTWKGNHTRPCRLCRNKLPVKSWVVPGALPQI
B4: human CXCL17 (ligand)
chain: SSLNPGVARGHRDRGQASRRWLQEGGQECECKDWFLRAPRRKFMTVSGLPKKQCPCDHFKGNVKKTRHQRHHRKPNKHSRACQQFLKQCQLRSFALPL
B5: human CCL25 (ligand)
chain: QGVFEDCCLAYHYPIGWAVLRRAWTYRIQEVSGSCNLPAAIFYLPKRHRKVCGNPKSREVQRAMKLLDARNKVFAKLHHNTQTFQAGPHAVKKLSSGNSKLSSSKFSNPISSSKRNVSLLISANSGL
B6: human CXCL13 (ligand)
chain: VLEVYYTSLRCRCVQESSVFIPRRFIDRIQILPRGNGCPRKEIIVWKKNKSIVCVDPQAEWIQRMMEVLRKRSSSTLPVPVFKRKIP
B7: human GPR15L (ligand)
chain: KRRPAKAWSGRRTRLCCHRVPSPNSTNLKGHHVRLCKPCKLEPEPRLWVVPGALPQV
B8: human CCL19 (ligand)
chain: GTNDAEDCCLSVTQKPIPGYIVRNFHYLLIKDGCRVPAVVFTTLRGRQLCAPPDQPWVERIIQRLQRTSAKMKRRSS

In the first experiment the target is T1, mouse GPR182 (untagged), stably expressed on HEK293T cells (mouse, UniProt P43142 1-398).
T1 sequence: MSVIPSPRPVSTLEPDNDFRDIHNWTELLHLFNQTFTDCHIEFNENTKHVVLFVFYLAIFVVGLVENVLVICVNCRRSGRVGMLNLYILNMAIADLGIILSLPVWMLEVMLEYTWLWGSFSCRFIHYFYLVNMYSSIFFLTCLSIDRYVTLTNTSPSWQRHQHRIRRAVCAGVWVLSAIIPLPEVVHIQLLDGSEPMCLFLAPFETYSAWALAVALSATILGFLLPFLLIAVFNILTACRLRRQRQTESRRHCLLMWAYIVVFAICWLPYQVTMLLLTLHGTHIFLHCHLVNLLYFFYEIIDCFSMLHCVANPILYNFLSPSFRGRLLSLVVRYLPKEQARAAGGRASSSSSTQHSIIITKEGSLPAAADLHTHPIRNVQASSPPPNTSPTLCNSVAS
Kind of experiment: flow cytometry on cells.
For the molecule B1, the pIC50 stood at 6.13. B2 displayed a pIC50 of 5.61. B3 registered a pIC50 of 7.06.

In another experiment the target is human GPR182 (untagged), stably expressed on HEK293T cells (human, UniProt O15218 1-404). The experiment in a line: flow cytometry on cells.
Chain of human GPR182 (untagged), stably expressed on HEK293T cells (O15218 whole entry): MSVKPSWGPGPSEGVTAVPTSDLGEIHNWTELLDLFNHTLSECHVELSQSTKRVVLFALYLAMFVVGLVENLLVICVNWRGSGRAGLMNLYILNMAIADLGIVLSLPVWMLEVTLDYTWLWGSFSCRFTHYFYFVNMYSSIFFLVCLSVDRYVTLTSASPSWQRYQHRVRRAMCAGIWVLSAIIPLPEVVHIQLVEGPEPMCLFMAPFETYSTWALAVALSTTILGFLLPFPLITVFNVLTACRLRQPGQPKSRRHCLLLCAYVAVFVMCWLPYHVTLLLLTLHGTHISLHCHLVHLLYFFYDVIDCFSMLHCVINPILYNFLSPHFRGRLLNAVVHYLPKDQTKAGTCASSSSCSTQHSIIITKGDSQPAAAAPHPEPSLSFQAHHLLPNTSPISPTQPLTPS
In turn, B4 displayed a pIC50 of 7.89. B5: the pIC50 came to 7.17. As to B6, the pIC50 was determined as 7.67. For the molecule B1, the pIC50 turned out to be 7.87. B7 registered a pIC50 of 8.

B8 had a pIC50 of 7.21.

Values taken from doi:10.1101/2024.06.01.596940 (bioRxiv, 2024).
